Assay results: PMC3876282

Target: AvrPtoB BAK1-interacting domain, 250-359 (UniProt Q8RSY1)
Assay: gel filtration co-migration, Coomassie SDS-PAGE
Settings: reference: wild-type BAK1-KD

## BAK1 kinase domain, 250-591 (from UniProt Q94F62) BAK1-KD T449A
Sites T449
  binding against the reference: lost

## BAK1 kinase domain, 250-591 (from UniProt Q94F62) BAK1-KD T450A
Sites T450
  binding against the reference: lost
